# Measurements taken from patent US20100166708.
# Columns and labels:
# [1] = tryptophan fluorescence, urea dissociation of peptide complexes, 25 µM peptide
# [2] = tryptophan fluorescence, urea dissociation of peptide complexes, 5 µM peptide
substance,measurement,setting,value
delta-haemolysin,midpoint of the unfolding curve,[1],The midpoints of the unfolding curves of 5 µM and 25 µM were 2.14 and 3.20M urea
same,midpoint of the unfolding curve,[2],The midpoints of the unfolding curves of 5 µM and 25 µM were 2.14 and 3.20M urea
